Experimental data from article PMC6858569.

Biological target: mouse TRPV3 with the single residue substitution Y564A (mouse)
Assay: cryo-EM structure

“mouse TRPV3 with the single residue substitution Y564A (natural protein)” showed a stoichiometry N of 4.
